B1: AZU1 (protein, UniProt P20160 27-248, looked up)
Azurocidin: IVGGRKARPRQFPFLASIQNQGRHFCGGALIHARFVMTAASCFQSQNPGVSTVVLGAYDLRRRERQSRQTFSISSMSENGYDPQQNLNDLMLLQLDREANLTSSVTILPLPLQNATVEAGTRCQVAGWGSQRSGGRLSRFPRFVNVTVTPEDQCRPNNVCTGVLTRRGGICNGDGGTPLVCEGLAHGVASFSLGPCGRGPDFFTRVALFRDWIDGVLNNPGP
B2: FR-gamma (protein, UniProt P41439 23-245, looked up)
Folate receptor gamma: QPRSARARTDLLNVCMNAKHHKTQPSPEDELYGQCSPWKKNACCTASTSQELHKDTSRLYNFNWDHCGKMEPTCKRHFIQDSCLYECSPNLGPWIRQVNQSWRKERILNVPLCKEDCERWWEDCRTSYTCKSNWHKGWNWTSGINECPAGALCSTFESYFPTPAALCEGLWSHSFKVSNYSRGSGRCIQMWFDSAQGNPNEEVAKFYAAAMNAGAPSRGIIDS
B3: SELE (protein, UniProt P16581 22-610, looked up)
E-selectin: WSYNTSTEAMTYDEASAYCQQRYTHLVAIQNKEEIEYLNSILSYSPSYYWIGIRKVNNVWVWVGTQKPLTEEAKNWAPGEPNNRQKDEDCVEIYIKREKDVGMWNDERCSKKKLALCYTAACTNTSCSGHGECVETINNYTCKCDPGFSGLKCEQIVNCTALESPEHGSLVCSHPLGNFSYNSSCSISCDRGYLPSSMETMQCMSSGEWSAPIPACNVVECDAVTNPANGFVECFQNPGSFPWNTTCTFDCEEGFELMGAQSLQCTSSGNWDNEKPTCKAVTCRAVRQPQNGSVRCSHSPAGEFTFKSSCNFTCEEGFMLQGPAQVECTTQGQWTQQIPVCEAFQCTALSNPERGYMNCLPSASGSFRYGSSCEFSCEQGFVLKGSKRLQCGPTGEWDNEKPTCEAVRCDAVHQPPKGLVRCAHSPIGEFTYKSSCAFSCEEGFELHGSTQLECTSQGQWTEEVPSCQVVKCSSLAVPGKINMSCSGEPVFGTVCKFACPEGWTLNGSAARTCGATGHWSGLLPTCEAPTESNIPLVAGLSAAGLSLLTLAPFLLWLRKCLRKAKKFVPASSCQSLESDGSYQKPSYIL
B4: LILRB2 (protein, UniProt Q8N423 22-597, looked up)
Leukocyte immunoglobulin-like …: QTGTIPKPTLWAEPDSVITQGSPVTLSCQGSLEAQEYRLYREKKSASWITRIRPELVKNGQFHIPSITWEHTGRYGCQYYSRARWSELSDPLVLVMTGAYPKPTLSAQPSPVVTSGGRVTLQCESQVAFGGFILCKEGEDEHPQCLNSQPHARGSSRAIFSVGPVSPNRRWSHRCYGYDLNSPYVWSSPSDLLELLVPGVSKKPSLSVQPGPVMAPGESLTLQCVSDVGYDRFVLYKEGERDLRQLPGRQPQAGLSQANFTLGPVSRSYGGQYRCYGAHNLSSECSAPSDPLDILITGQIRGTPFISVQPGPTVASGENVTLLCQSWRQFHTFLLTKAGAADAPLRLRSIHEYPKYQAEFPMSPVTSAHAGTYRCYGSLNSDPYLLSHPSEPLELVVSGPSMGSSPPPTGPISTPGPEDQPLTPTGSDPQSGLGRHLGVVIGILVAVVLLLLLLLLLFLILRHRRQGKHWTSTQRKADFQHPAGAVGPEPTDRGLQWRSSPAADAQEENLYAAVKDTQPEDGVEMDTRAAASEAPQDVTYAQLHSLTLRRKATEPPPSQEREPPAEPSIYATLAIH
B5: SELL (protein, UniProt P14151 39-372, looked up)
L-selectin: WTYHYSEKPMNWQRARRFCRDNYTDLVAIQNKAEIEYLEKTLPFSRSYYWIGIRKIGGIWTWVGTNKSLTEEAENWGDGEPNNKKNKEDCVEIYIKRNKDAGKWNDDACHKLKAALCYTASCQPWSCSGHGECVEIINNYTCNCDVGYYGPQCQFVIQCEPLEAPELGTMDCTHPLGNFSFSSQCAFSCSEGTNLTGIEETTCGPFGNWSSPEPTCQVIQCEPLSAPDLGIMNCSHPLASFSFTSACTFICSEGTELIGKKKTICESSGIWSNPSPICQKLDKSFSMIKEGDYNPLFIPVAVMVTAFSGLAFIIWLARRLKKGKKSKRSMNDPY
B6: RELT (protein, UniProt Q969Z4 26-430, looked up)
Tumor necrosis factor …: STTLWQCPPGEEPDLDPGQGTLCRPCPPGTFSAAWGSSPCQPHARCSLWRRLEAQVGMATRDTLCGDCWPGWFGPWGVPRVPCQPCSWAPLGTHGCDEWGRRARRGVEVAAGASSGGETRQPGNGTRAGGPEETAAQYAVIAIVPVFCLMGLLGILVCNLLKRKGYHCTAHKEVGPGPGGGGSGINPAYRTEDANEDTIGVLVRLITEKKENAAALEELLKEYHSKQLVQTSHRPVSKLPPAPPNVPHICPHRHHLHTVQGLASLSGPCCSRCSQKKWPEVLLSPEAVAATTPVPSLLPNPTRVPKAGAKAGRQGEITILSVGRFRVARIPEQRTSSMVSEVKTITEAGPSWGDLPDSPQPGLPPEQQALLGSGGSRTKWLKPPAENKAEENRYVVRLSESNLVI
B7: MESDC2 (protein, UniProt Q14696 34-234, looked up)
LRP chaperone MESD: AEGSPGTPDESTPPPRKKKKDIRDYNDADMARLLEQWEKDDDIEEGDLPEHKRPSAPVDFSKIDPSKPESILKMTKKGKTLMMFVTVSGSPTEKETEEITSLWQGSLFNANYDVQRFIVGSDRAIFMLRDGSYAWEIKDFLVGQDRCADVTLEGQVYPGKGGGSKEKNKTKQDKGKKKKEGDLKSRSSKEENRAGNKREDL
B8: CLEC5A (protein, UniProt Q9NY25 1-188, looked up)
C-type lectin domain family 5 …: MNWHMIISGLIVVVLKVVGMTLFLLYFPQIFNKSNDGFTTTRSYGTVSQIFGSSSPSPNGFITTRSYGTVCPKDWEFYQARCFFLSTSESSWNESRDFCKGKGSTLAIVNTPEKLKFLQDITDAEKYFIGLIYHREEKRWRWINNSVFNGNVTNQNQNFNCATIGLTKTFDAASCDISYRRICEKNAK
B9: ADAM 8 (protein, UniProt P78325 17-824, looked up)
Disintegrin and …: IAPSRPWALMEQYEVVLPWRLPGPRVRRALPSHLGLHPERVSYVLGATGHNFTLHLRKNRDLLGSGYTETYTAANGSEVTEQPRGQDHCFYQGHVEGYPDSAASLSTCAGLRGFFQVGSDLHLIEPLDEGGEGGRHAVYQAEHLLQTAGTCGVSDDSLGSLLGPRTAAVFRPRPGDSLPSRETRYVELYVVVDNAEFQMLGSEAAVRHRVLEVVNHVDKLYQKLNFRVVLVGLEIWNSQDRFHVSPDPSVTLENLLTWQARQRTRRHLHDNVQLITGVDFTGTTVGFARVSAMCSHSSGAVNQDHSKNPVGVACTMAHEMGHNLGMDHDENVQGCRCQERFEAGRCIMAGSIGSSFPRMFSDCSQAYLESFLERPQSVCLANAPDLSHLVGGPVCGNLFVERGEQCDCGPPEDCRNRCCNSTTCQLAEGAQCAHGTCCQECKVKPAGELCRPKKDMCDLEEFCDGRHPECPEDAFQENGTPCSGGYCYNGACPTLAQQCQAFWGPGGQAAEESCFSYDILPGCKASRYRADMCGVLQCKGGQQPLGRAICIVDVCHALTTEDGTAYEPVPEGTRCGPEKVCWKGRCQDLHVYRSSNCSAQCHNHGVCNHKQECHCHAGWAPPHCAKLLTEVHAASGSLPVFVVVVLVLLAVVLVTLAGIIVYRKARSRILSRNVAPKTTMGRSNPLFHQAASRVPAKGGAPAPSRGPQELVPTTHPGQPARHPASSVALKRPPPAPPVTVSSPPFPVPVYTRQAPKQVIKPTFAPPVPPVKPGAGAANPGPAEGAVGPKVALKPPIQRKQGAGAPTAP
B10: CD5 (protein, UniProt P06127 25-495, looked up)
T-cell surface glycoprotein …: RLSWYDPDFQARLTRSNSKCQGQLEVYLKDGWHMVCSQSWGRSSKQWEDPSQASKVCQRLNCGVPLSLGPFLVTYTPQSSIICYGQLGSFSNCSHSRNDMCHSLGLTCLEPQKTTPPTTRPPPTTTPEPTAPPRLQLVAQSGGQHCAGVVEFYSGSLGGTISYEAQDKTQDLENFLCNNLQCGSFLKHLPETEAGRAQDPGEPREHQPLPIQWKIQNSSCTSLEHCFRKIKPQKSGRVLALLCSGFQPKVQSRLVGGSSICEGTVEVRQGAQWAALCDSSSARSSLRWEEVCREQQCGSVNSYRVLDAGDPTSRGLFCPHQKLSQCHELWERNSYCKKVFVTCQDPNPAGLAAGTVASIILALVLLVVLLVVCGPLAYKKLVKKFRQKKQRQWIGPTGMNQNMSFHRNHTATVRSHAENPTASHVDNEYSQPPRNSHLSAYPALEGALHRSSMQPDNSSDSDYDLHGAQRL
B11: PSP-D (protein, UniProt P35247 21-375, looked up)
Pulmonary …: AEMKTYSHRTMPSACTLVMCSSVESGLPGRDGRDGREGPRGEKGDPGLPGAAGQAGMPGQAGPVGPKGDNGSVGEPGPKGDTGPSGPPGPPGVPGPAGREGPLGKQGNIGPQGKPGPKGEAGPKGEVGAPGMQGSAGARGLAGPKGERGVPGERGVPGNTGAAGSAGAMGPQGSPGARGPPGLKGDKGIPGDKGAKGESGLPDVASLRQQVEALQGQVQHLQAAFSQYKKVELFPNGQSVGEKIFKTAGFVKPFTEAQLLCTQAGGQLASPRSAAENAALQQLVVAKNEAAFLSMTDSKTEGKFTYPTGESLVYSNWAPGEPNDDGGSEDCVEIFTNGKWNDRACGEKRLVVCEF
B12: SDC4 (protein, UniProt P31431 19-198, looked up)
Syndecan-4: ESIRETEVIDPQDLLEGRYFSGALPDDEDVVGPGQESDDFELSGSGDLDDLEDSMIGPEVVHPLVPLDNHIPERAGSGSQVPTEPKKLEENEVIPKRISPVEESEDVSNKVSMSSTVQGSNIFERTEVLAALIVGGIVGILFAVFLILLLMYRMKKKDEGSYDLGKKPIYKKAPTNEFYA
B13: CRTAM (protein, UniProt O95727 18-393, looked up)
Cytotoxic and regulatory …: SLTNHTETITVEEGQTLTLKCVTSLRKNSSLQWLTPSGFTIFLNEYPALKNSKYQLLHHSANQLSITVPNVTLQDEGVYKCLHYSDSVSTKEVKVIVLATPFKPILEASVIRKQNGEEHVVLMCSTMRSKPPPQITWLLGNSMEVSGGTLHEFETDGKKCNTTSTLIIHTYGKNSTVDCIIRHRGLQGRKLVAPFRFEDLVTDEETASDALERNSLSSQDPQQPTSTVSVTEDSSTSEIDKEEKEQTTQDPDLTTEANPQYLGLARKKSGILLLTLVSFLIFILFIIVQLFIMKLRKAHVIWKKENEVSEHTLESYRSRSNNEETSSEEKNGQSSHPMRCMNYITKLYSEAKTKRKENVQHSKLEEKHIQVPESIV
B14: BID (protein, UniProt P55957 1-195, looked up)
BH3-interacting domain death …: MDCEVNNGSSLRDECITNLLVFGFLQSCSDNSFRRELDALGHELPVLAPQWEGYDELQTDGNRSSHSRLGRIEADSESQEDIIRNIARHLAQVGDSMDRSIPPGLVNGLALQLRNTSRSEEDRNRDLATALEQLLQAYPRDMEKEKTMLVLALLLAKKVASHTPSLLRDVFHTTVNFINQNLRTYVRSLARNGMD

These molecules were tested on plasma proteins (assay: Plasma proteins modulated between baseline and day 28 in responders (CR, VGPR, PR; n = 19), Example 6 (Table 13)). Conditions: plasma protein (OLINK NPX); responders (CR, VGPR, PR; n = 19); itacitinib 200 mg or 300 mg QD with corticosteroids; day 28 vs baseline.
Assay type: in vivo, human
How it was run: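 Longitudinal comparison, day 28 versus baseline, with steroid-naive (N=10) and steroid-refractory (N=18) patients combined. Proteins measured by OLINK proximity extension, log2 normalized protein expression. Differences tested by t tests, ANOVA, Pearson correlation, P<0.05 significant.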
B1 was tested, and the “Fold Change, Decreased Expression from Baseline to Day 28” value (shortened to “Fold Change, Decreased Expression”) was −2.0976.
With B2 the “Fold Change, Decreased Expression” value was −1.2115.
In the case of B3, the “Fold Change, Decreased Expression” value is reported as −1.5291.
B4 was tested, and the “Fold Change, Decreased Expression” value was −1.2555.
B5 was tested, and the “Fold Change, Decreased Expression” value was −1.4428.
For B6, the “Fold Change, Decreased Expression” value was −1.3317.
For B7, the “Fold Change, Decreased Expression” value was −1.7056.
With B8 the “Fold Change, Decreased Expression” value was −1.3618.
In the case of B9, the “Fold Change, Decreased Expression” value is reported as −1.3896.
For B10, the “Fold Change, Decreased Expression” value was −1.9942.
With B11 the “Fold Change, Decreased Expression” value was −1.2426.
In the case of B12, the “Fold Change, Decreased Expression” value is reported as −1.4678.
With B13 the “Fold Change, Decreased Expression” value was −1.5805.
In the case of B14, the “Fold Change, Decreased Expression” value is reported as −1.382.

— patent publication US12099068B2, “Biomarkers for graft-versus-host disease” (Incyte Corporation, priority 2018, dated 2024)
